Reference: US10058586B2, “Use of human small leucine zipper protein in adipocyte differentiation procedure” (Korea University Research and Business Foundation, priority 2013, dated 2018)

Biological target: T1, PPARγ2 (Homo sapiens, UniProt P37231)
T1 sequence (P37231 1-505): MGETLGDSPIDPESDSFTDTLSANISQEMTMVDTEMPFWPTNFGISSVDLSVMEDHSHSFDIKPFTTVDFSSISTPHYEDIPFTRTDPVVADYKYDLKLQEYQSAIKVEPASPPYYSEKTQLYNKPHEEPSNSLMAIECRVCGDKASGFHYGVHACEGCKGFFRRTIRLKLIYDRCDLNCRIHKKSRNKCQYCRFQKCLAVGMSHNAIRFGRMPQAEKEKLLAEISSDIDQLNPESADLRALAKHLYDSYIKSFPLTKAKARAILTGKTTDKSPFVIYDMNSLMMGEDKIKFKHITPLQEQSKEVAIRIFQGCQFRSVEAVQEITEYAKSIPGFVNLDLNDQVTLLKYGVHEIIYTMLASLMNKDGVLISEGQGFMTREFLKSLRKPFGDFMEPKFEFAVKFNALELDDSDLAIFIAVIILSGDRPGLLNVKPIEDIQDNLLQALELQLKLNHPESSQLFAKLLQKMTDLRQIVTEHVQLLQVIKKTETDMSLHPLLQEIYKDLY
Assay: FABP4 promoter luciferase analysis in preadipocytes from epididymal adipose tissues of sLZIP TG mice
Format: cell-based, mouse
Parameters: expressed in transfected cells; host or cells: primary preadipocytes from epididymal adipose tissue of human-sLZIP transgenic mice
Conditions: adipocytes of sLZIP TG mice vs wild type mice, with or without 10 nM RZD
Description: In order to generate human sLZIP transgenic (TG) mice, sLZIP genes were cloned into a pCMV-flag expression vector. The sLZIP TG mice were generated by Macrogen, Inc (Seoul, Korea). Transgenic founders were mated with wild type C57BL/6 mice to produce F1 heterozygotes. F1-F4 generations were genetically screened for transgenes at an age of 2 weeks old. The following two primers were used to amplify genomic DNA in order to identify wild type and TG mice: [NT] and 5'-[NT]3.' Adipocyte differentiation is a well-regulated procedure. PPARγ2 is a major regulator of adipogenesis, is highly expressed during adipocyte differentiation, and regulates expression of genes involved in adipogenesis. An effect of sLZIP on adipogenesis in vivo was examined. For this purpose, in order to produce human sLZIP transgenic mice, sLZIP genes were cloned in a pCMV-flag expression vector. The sLZIP TG mice were produced in Macrogen, Inc (Seoul, Korea) (FIG. 8A). Preadipocytes were isolated from epididymal adipose tissues of sLZIP TG mice. […] A promoter activity was measured according to luciferase analysis (FIG. 8B). […] Total RNA was extracted from the cells, and an mRNA expression level of mouse LZIPs was measured using RT-PCR analysis. […] Total RNA was isolated from the cells, and an mRNA expression level of mouse LZIPs was measured using RT-PCR (FIG. 9C) and real-time PCR (FIG. 9D).

B1: sLZIP: human small leucine-zipper protein, isoform of LZIP, 354 amino acids, no transmembrane domain; GenBank FJ263669, SEQ ID NO: 1 (protein, listed as Homo sapiens)
chain: MELELDAGDQDLLAFLLEESGDLGTAPDEAVRAPLDWALPLSEVPSDWEVDDLLCSLLSPPASLNILSSSNPCLVHHDHTYSLPRETVSMDLESESCRKEGTQMTPQHMEELAEQEIARLVLTDEEKSLLEKEGLILPETLPLTKTEEQILKRVRRKIRNKRSAQESRRKKKVYVGGLESRVLKYTAQNMELQNKVQLLEEQNLSLLDQLRKLQAMVIEISNKTSSSSMYSSDTRGSLPAEHGVLSRQLRALPSEDPYQLELPALQSEVPKDSTHQWLDGSDCVLQAPGNTSCLLHYMPQAPSAEPPLEWPFPDLFSEPLCRGPILPLQANLTRKGGWLPTGSPSVILQDRYSG
transcriptional activity of PPARγ2 (luciferase): decreased in the adipocytes of the sLZIP TG mice more than in wild type mice
